The text below walks through data of US20240034762A1 (YALE UNIVERSITY, published 2024).

Test [1] deals with T1, full-length human α-Klotho with a C-terminal HA-tag on HEK293 cells stably co-expressing FGFR1c (human) (UniProt Q9UEF7).
T1 sequence: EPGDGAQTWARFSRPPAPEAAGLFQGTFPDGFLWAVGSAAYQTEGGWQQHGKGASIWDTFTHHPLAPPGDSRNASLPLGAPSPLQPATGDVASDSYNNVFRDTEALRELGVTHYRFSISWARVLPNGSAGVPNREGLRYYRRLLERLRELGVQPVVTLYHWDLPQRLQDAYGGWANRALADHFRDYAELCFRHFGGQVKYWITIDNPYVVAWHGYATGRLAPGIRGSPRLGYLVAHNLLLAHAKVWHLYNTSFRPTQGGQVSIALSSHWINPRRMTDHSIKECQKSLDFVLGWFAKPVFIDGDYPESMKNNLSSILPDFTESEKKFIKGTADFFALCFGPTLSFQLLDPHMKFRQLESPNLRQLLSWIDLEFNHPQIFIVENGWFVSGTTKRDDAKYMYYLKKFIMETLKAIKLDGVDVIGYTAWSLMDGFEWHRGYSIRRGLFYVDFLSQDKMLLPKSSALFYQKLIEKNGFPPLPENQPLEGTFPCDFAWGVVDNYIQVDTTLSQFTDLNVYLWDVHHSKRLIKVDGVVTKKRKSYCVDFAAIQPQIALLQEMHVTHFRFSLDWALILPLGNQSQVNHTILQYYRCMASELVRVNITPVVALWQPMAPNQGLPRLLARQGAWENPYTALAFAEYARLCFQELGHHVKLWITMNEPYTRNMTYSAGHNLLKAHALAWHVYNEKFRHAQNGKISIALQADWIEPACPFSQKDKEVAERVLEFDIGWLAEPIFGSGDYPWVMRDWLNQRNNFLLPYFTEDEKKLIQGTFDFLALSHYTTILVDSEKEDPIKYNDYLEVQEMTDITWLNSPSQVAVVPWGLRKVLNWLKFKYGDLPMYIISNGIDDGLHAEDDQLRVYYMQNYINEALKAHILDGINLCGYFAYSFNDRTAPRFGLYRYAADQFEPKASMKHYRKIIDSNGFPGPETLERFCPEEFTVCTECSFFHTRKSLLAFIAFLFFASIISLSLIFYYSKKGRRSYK
Briefly: cell-based or functional assay.

Test [2] deals with T2, soluble extracellular domain of human α-Klotho (aa 1-980) fused to a 6xHis tag (human, UniProt Q9UEF7 34-980).
T2 construct: Secreted from HEK293 EBNA cells; also called sKLA; soluble α-Klotho
T2 sequence: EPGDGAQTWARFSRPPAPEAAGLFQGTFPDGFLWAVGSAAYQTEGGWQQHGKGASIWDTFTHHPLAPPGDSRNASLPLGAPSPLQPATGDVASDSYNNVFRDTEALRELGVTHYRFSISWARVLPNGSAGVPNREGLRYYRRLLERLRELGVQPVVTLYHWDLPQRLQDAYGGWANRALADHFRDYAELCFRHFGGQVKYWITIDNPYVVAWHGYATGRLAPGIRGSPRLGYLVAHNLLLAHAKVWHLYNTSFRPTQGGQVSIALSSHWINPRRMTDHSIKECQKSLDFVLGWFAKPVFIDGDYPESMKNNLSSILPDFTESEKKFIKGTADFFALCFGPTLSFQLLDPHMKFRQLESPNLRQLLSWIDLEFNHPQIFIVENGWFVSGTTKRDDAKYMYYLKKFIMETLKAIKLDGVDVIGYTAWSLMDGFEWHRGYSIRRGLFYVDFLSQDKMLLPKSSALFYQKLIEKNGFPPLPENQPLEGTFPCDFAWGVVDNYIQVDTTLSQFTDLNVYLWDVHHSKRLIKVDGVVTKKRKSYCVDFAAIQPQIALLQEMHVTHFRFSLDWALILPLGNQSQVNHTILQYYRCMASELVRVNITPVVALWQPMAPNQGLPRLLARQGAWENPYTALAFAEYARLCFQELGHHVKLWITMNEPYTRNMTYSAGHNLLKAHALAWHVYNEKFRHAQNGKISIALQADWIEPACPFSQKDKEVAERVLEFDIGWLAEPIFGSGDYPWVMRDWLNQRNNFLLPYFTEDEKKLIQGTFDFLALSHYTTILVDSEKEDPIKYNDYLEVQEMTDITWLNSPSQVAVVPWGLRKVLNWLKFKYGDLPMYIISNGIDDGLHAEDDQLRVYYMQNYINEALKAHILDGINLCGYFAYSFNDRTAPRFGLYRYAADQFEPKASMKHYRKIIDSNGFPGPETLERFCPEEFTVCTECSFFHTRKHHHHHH
Briefly: BLI (Octet); GST fusion captured on anti-GST biosensor, sKLA in solution at 6.25-200 nM, 1:1 fit, mean ± S.D. of 3 experiments. As to the method:
(§1) Kinetic parameters and dissociation constants of sKLA binding to the various forms of full length FGF23 or GST-fused C-terminal fragments of FGF23 were studied using Bio-Layer Interferometry (BLI). Octet RED96 system (Pall ForteBio) equipped with anti-mouse IgG Fc (AMC) biosensors was used to study interactions between α-Klotho and FLAG-tagged FGF23. Biosensor tips were loaded with anti-FLAG M2 antibody (Millipore Sigma) at 5 μg/ml for 2 min, washed in BLI buffer (25 mM HEPES, 150 mM NaCl, pH 7.5, 0.002% Tween-20, 1 mg/mL BSA) for 60 s, and then loaded with FLAG-tagged FGF23 at 5 μg/ml for 4 min. Alternatively, anti-GST biosensor tips were loaded with 5 ug/ml GST fused with various FGF23 C-terminal fragments for 15 s. Subsequently, ligand-loaded sensor tips were dipped into microplate wells containing different sKLA concentrations, ranging from 6.25 nM to 200 nM in 2-fold dilutions of BLI buffer. After each binding cycle the sensor tips were regenerated with 10 mM glycine (pH 1.5). The collected data were referenced using a parallel buffer control subtraction, and sensograms were fitted globally to a 1:1 Langmuir binding model using ForteBio Data Analysis 10.0 software provided by the manufacturer.
To examine the significance of each of the two FGF23 repeats in α-Klotho binding and receptor activation, bio-layer interferometry (BLI) analyses was applied to measure the kinetic parameters and dissociation constants of each repeat alone or the entire C-terminal tail of FGF23 towards sKLA. To that end, GST-fusion proteins expressing either full length (FL) tail of FGF23 (amino acids […]), the first repeat R1 (amino acids S180-S205), or the second repeat R2 (amino acids […]) were produced in E. coli (FIG. 6) and immobilized on BLI sensors. sKLA was produced in HEK293 EBNA cells and used as an analyte in the BLI measurements (see elsewhere herein).

In test [3] the target is T2, soluble extracellular domain of human …. Briefly: BLI; FLAG-tagged FGF23 captured by anti-FLAG M2 on anti-mouse Fc sensors, sKLA 6.25-200 nM as analyte, 1:1 fit. As to the method:
FIG. 10A: BLI sensorgrams of binding of FGF23-WT, FGF23-CS, FGF23 D188A, and FGF23-CS D188A to sKLA. Biosensors coated with anti-mouse-Fc antibody was used to immobilize anti-Flag antibody followed by capturing Flag-tagged FGF23-WT or FGF23-CS. Biosensors were then dipped into solutions containing a series of concentrations of sKLA (200, 100, 50, 25, 12.5, and 6.25 nM). The resulting sensorgrams were fitted with a 1:1 ligand:receptor binding model to calculate kinetic parameters and dissociation constants. FIGS. 10B-10C: HEK293 cells stably expressing FGFR1c together with α-Klotho were left unstimulated or stimulated with increasing concentrations of FGF23-WT or FGF23-CS mutant, as indicated, for 10 minutes at 37° C. Cell lysates were subjected to SDS-PAGE and analyzed for serine phosphorylation of FGFR1, tyrosine phosphorylation of FRS2 and for MAPK activation by immunoblotting with anti-FGFR1-pS, anti-pFRS2 and anti-pMAPK antibodies, respectively and with anti-MAPK as a control. FIG. 10D: Schematic diagram depicting the bivalency of the C-terminal tail of FGF23 binding to α-Klotho.
as §1
(Biolayer interferometry detects binding as a change in optical thickness at a sensor tip.)

No end group written: not given here.

B1: human IgG1 Fc fused to the full-length C-terminal tail of human FGF23 (aa 180-251) (Fc fusion, not shown: a dimerising Fc or GST)
chain: SAEDDSERDPLNVLKPRARMTPAPASCSQELPSAEDNSPMASDPLGVVRGGRVNTHAGGTGPEGCRPFAKFI
B1 came in with a complete inhibition of FGF23-induced MAPK stimulation in HEK293 cells co-expressing α-Klotho and FGFR1c in test [1] of 100 to 250 nM.

B2: GST fusion of the full-length C-terminal tail of human FGF23 (aa 180-251) (other)
chain: SAEDDSERDPLNVLKPRARMTPAPASCSQELPSAEDNSPMASDPLGVVRGGRVNTHAGGTGPEGCRPFAKFI
notes: Expressed in E. coli BL21-Gold (DE3); also called GST-FL; FL tail of FGF23; not shown: glutathione S-transferase encoded by the pGEX4T1 vector (GE Healthcare)
In test [2], B2 registered a Kd of 15 nM, a koff of 0.0031 s⁻¹ and an on-rate (kon) of 210000 M⁻¹ s⁻¹.

B3: GST fusion of repeat 1 (R1, aa 180-205) of the human FGF23 C-terminal tail (other)
chain: SAEDDSERDPLNVLKPRARMTPAPAS
modifications: also: GST fusion partner (recombinant, not part of given chain)
notes: Expressed in E. coli; also called GST-R1; not shown: glutathione S-transferase encoded by the pGEX4T1 vector (GE Healthcare)
In test [2], B3 showed a Kd of 20 nM, a koff of 0.0041 s⁻¹ and a kon of 210000 M⁻¹ s⁻¹.

B4: FLAG-tagged human FGF23 D188A mutant expressed in Expi293F cells (ligand)
chain: DYKDDDDKYPNASPLLGSSWGGLIHLYTATARNSYHLQIHKNGHVDGAPHQTIYSALMIRSEDAGFVVITGVMSRRYLCMDFRGNIFGSHYFDPENCRFQHQTLENGYDVYHSPQYHFLVSLGAAKAAFLPGMNPPPYSQFLSRRNEIPLIHFNTPIPRQHTQSAEDDSERAPLNVLKPRARMTPAPASCSQELPSAEDNSPMASDPLGVVRGGRVNTHAGGTGPEGCRPFAKFI
In test [3], B4 showed a Kd of 13 nM, a koff of 0.0036 s⁻¹ and a kon of 280000 M⁻¹ s⁻¹.

B5: FLAG-tagged human FGF23 (aa 25-251) expressed in Expi293F cells (ligand)
chain: DYKDDDDKYPNASPLLGSSWGGLIHLYTATARNSYHLQIHKNGHVDGAPHQTIYSALMIRSEDAGFVVITGVMSRRYLCMDFRGNIFGSHYFDPENCRFQHQTLENGYDVYHSPQYHFLVSLGAAKAAFLPGMNPPPYSQFLSRRNEIPLIHFNTPIPRQHTQSAEDDSERDPLNVLKPRARMTPAPASCSQELPSAEDNSPMASDPLGVVRGGRVNTHAGGTGPEGCRPFAKFI
modifications: O-linked glycosylation (sites not given); Cys206-Cys244 disulfide bridge
notes: also called FGF23-WT; mFGF23-WT
In test [3], B5 returned a Kd of 14 nM, a koff of 0.0034 s⁻¹ and a kon of 260000 M⁻¹ s⁻¹.

B6: FLAG-tagged human FGF23 C206S/C244S mutant expressed in Expi293F cells (ligand)
chain: DYKDDDDKYPNASPLLGSSWGGLIHLYTATARNSYHLQIHKNGHVDGAPHQTIYSALMIRSEDAGFVVITGVMSRRYLCMDFRGNIFGSHYFDPENCRFQHQTLENGYDVYHSPQYHFLVSLGAAKAAFLPGMNPPPYSQFLSRRNEIPLIHFNTPIPRQHTQSAEDDSERDPLNVLKPRARMTPAPASSSQELPSAEDNSPMASDPLGVVRGGRVNTHAGGTGPEGSRPFAKFI
modifications: O-linked glycosylation (sites not given)
notes: also called FGF23-CS; mFGF23-CS
In test [3], B6 registered an equilibrium dissociation constant (Kd) of 18 nM, a koff of 0.0042 s⁻¹ and a kon of 230000 M⁻¹ s⁻¹.

B7: FLAG-tagged human FGF23 C206S/C244S/D188A mutant expressed in Expi293F cells (ligand)
chain: DYKDDDDKYPNASPLLGSSWGGLIHLYTATARNSYHLQIHKNGHVDGAPHQTIYSALMIRSEDAGFVVITGVMSRRYLCMDFRGNIFGSHYFDPENCRFQHQTLENGYDVYHSPQYHFLVSLGAAKAAFLPGMNPPPYSQFLSRRNEIPLIHFNTPIPRQHTQSAEDDSERAPLNVLKPRARMTPAPASSSQELPSAEDNSPMASDPLGVVRGGRVNTHAGGTGPEGSRPFAKFI
notes: also called FGF23-CS D188A
B7: in test [3], binding was characterised by a dissociation constant (Kd) of 18 nM, the koff stood at 0.0044 s⁻¹ and the kon came to 250000 M⁻¹ s⁻¹.

B8: GST fusion of repeat 2 (R2) of the human FGF23 C-terminal tail (other)
chain: SAEDNSPMASDPLGVVRGGRVNTHAGGTGPEG
modifications: not fully specified; also: fused to glutathione S-transferase (pGEX4T1), vector linker residues not given here
notes: The plasmid limits are used here; also called GST-R2; not shown: glutathione S-transferase encoded by the pGEX4T1 vector (GE Healthcare)
B8: in test [2], the Kd came out at 17 nM, the koff was determined as 0.0034 s⁻¹ and the on-rate (kon) amounted to 200000 M⁻¹ s⁻¹.
Turning to {human IgG1 Fc (aa 223-449)}-SAEDNSPMASDPLGVVRGGRVNTHAGGTGPEG (Fc fusion, not shown: a dimerising Fc or GST, also: R2 given as aa 212-243 or S212-T239) [human IgG1 Fc fused to R2 of human FGF23], the complete inhibition of FGF23-induced MAPK stimulation in HEK293 cells co-expressing α-Klotho and FGFR1c in test [1] lay in the range of 100 to 250 nM.

B9: human IgG1 Fc fused to R1 (aa 180-205) of human FGF23 (Fc fusion, not shown: a dimerising Fc or GST)
chain: SAEDDSERDPLNVLKPRARMTPAPAS
modifications: not fully specified (N-terminus); also: dimeric Fc fusion protein, Fc-R1 junction/linker not given here
B9 came in with a complete inhibition of FGF23-induced MAPK stimulation in HEK293 cells co-expressing α-Klotho and FGFR1c in test [1] of 100 to 250 nM.

The term Kd denotes the free concentration of one partner at which half of the binding sites on the other are occupied at equilibrium, for simple one-to-one binding. Low values mean a tighter complex, high ones a looser complex. Usually koff stands for the first-order rate constant of dissociation. A lower koff goes with slow dissociation. As a reminder, the kon is a measure of how fast the partners come together. Low values mean slow association, high ones fast association.
